According to the supplement of paper PMC10567573:

B1: LCOR (parent)
chain: YKVKERLGTLKNPPKKKMKLMSG
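Further: lentivirally expressed fusions sorted by FACS into six bins by GFP to DsRed ratio, PSI derived from sequencing read proportions per bin multiplied by bin number.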

Variants of: B1
Assay: protein stability index of a GFP-peptide fusion (GPS, HEK-293T) (PSI 1-6); higher = more stable
Details: c terminus: native
Variant YKVKERLGTKKNPPKKKMKLMSG has a protein stability index of 1.85. Work on YKVKERLGTHKNPPKKKMKLMSG yielded a protein stability index of 1.85. YKVKERLGTRKNPPKKKMKLMSG gave a protein stability index of 2.23. Variant YKVKERLGTMKNPPKKKMKLMSG has a protein stability index of 2.8. Variant YKVKERLGTWKNPPKKKMKLMSG has a protein stability index of 2.42. For YKVKERLGTNKNPPKKKMKLMSG, the protein stability index was 2.85. YKVKERLGTDKNPPKKKMKLMSG showed a protein stability index of 1.86. Work on YKVKERLGTPKNPPKKKMKLMSG yielded a protein stability index of 1.42. Work on YKVKERLGTQKNPPKKKMKLMSG yielded a protein stability index of 1.52. In the case of YKVKERLGTSKNPPKKKMKLMSG, the protein stability index is reported as 1.85. For YKVKERLGTAKNPPKKKMKLMSG, the protein stability index was 2.38. In the case of YKVKERLGTCKNPPKKKMKLMSG, the protein stability index is reported as 2.19. YKVKERLGTEKNPPKKKMKLMSG showed a protein stability index of 2.04. Work on YKVKERLGTTKNPPKKKMKLMSG yielded a protein stability index of 2.52. Work on YKVKERLGTVKNPPKKKMKLMSG yielded a protein stability index of 2. With YKVKERLGTIKNPPKKKMKLMSG the protein stability index was 1.5. YKVKERLGTFKNPPKKKMKLMSG showed a protein stability index of 2.46. Variant YKVKERLGTGKNPPKKKMKLMSG has a protein stability index of 1.35. In the case of YKVKEILGTLKNPPKKKMKLMSG, the protein stability index is reported as 2.49. YKVKETLGTLKNPPKKKMKLMSG showed a protein stability index of 1.72. For YKVKEPLGTLKNPPKKKMKLMSG, the protein stability index was 2.47. In the case of YKVKEELGTLKNPPKKKMKLMSG, the protein stability index is reported as 2.17. YKVKEGLGTLKNPPKKKMKLMSG showed a protein stability index of 2.21. With YKVKEDLGTLKNPPKKKMKLMSG the protein stability index was 1.46. Work on YKVKEKLGTLKNPPKKKMKLMSG yielded a protein stability index of 1.11. For YKVKEWLGTLKNPPKKKMKLMSG, the protein stability index was 2.79. With YKVKEMLGTLKNPPKKKMKLMSG the protein stability index was 2.5. Work on YKVKEFLGTLKNPPKKKMKLMSG yielded a protein stability index of 2.2. In the case of YKVKELLGTLKNPPKKKMKLMSG, the protein stability index is reported as 1.84. YKVKEQLGTLKNPPKKKMKLMSG showed a protein stability index of 2.16. With YKVKESLGTLKNPPKKKMKLMSG the protein stability index was 3.27. For YKVKEYLGTLKNPPKKKMKLMSG, the protein stability index was 2.14. YKVKECLGTLKNPPKKKMKLMSG showed a protein stability index of 4.96. YKVKERLRTLKNPPKKKMKLMSG gave a protein stability index of 1.4. For YKVKERLVTLKNPPKKKMKLMSG, the protein stability index was 2.33. With YKVKERLMTLKNPPKKKMKLMSG the protein stability index was 1.69. In the case of YKVKERLHTLKNPPKKKMKLMSG, the protein stability index is reported as 1.92. For YKVKERLPTLKNPPKKKMKLMSG, the protein stability index was 3.05. YKVKERLITLKNPPKKKMKLMSG gave a protein stability index of 1.12. Work on YKVKERLATLKNPPKKKMKLMSG yielded a protein stability index of 1.85. Variant YKVKERLNTLKNPPKKKMKLMSG has a protein stability index of 1.27. For YKVKERLQTLKNPPKKKMKLMSG, the protein stability index was 3.21. For YKVKERLETLKNPPKKKMKLMSG, the protein stability index was 2.72. Variant YKVKERLYTLKNPPKKKMKLMSG has a protein stability index of 2.08. Variant YKVKERLCTLKNPPKKKMKLMSG has a protein stability index of 2.52. YKVKERLTTLKNPPKKKMKLMSG showed a protein stability index of 2.16. With YKVKERLLTLKNPPKKKMKLMSG the protein stability index was 2.22. Variant YKVKERLKTLKNPPKKKMKLMSG has a protein stability index of 1.47.
